Results taken from paper PMC4359245 (Oncotarget, 2014).

Legend:
proteinase K [1] = biological target: T1, proteinase K (Parengyodontium album, UniProt P06873); experiment: Proteinase K digestion of synthetic Aβ in lysis buffer, western blot; type: in vitro ADME; settings: 1 h, 37°C, western blot 6E10; for Immunoreactivity with 6E10 after PK digestion (PK sensitivity): peptide in 1X PBS diluted in 1X lysis buffer, no DMSO, smallest amount of PK 5 μg/ml (range 0-50 μg/ml); for PK sensitivity of peptides dissolved in DMSO: 1X lysis buffer, PK 0-50 μg/ml
T1 sequence (P06873 106-384): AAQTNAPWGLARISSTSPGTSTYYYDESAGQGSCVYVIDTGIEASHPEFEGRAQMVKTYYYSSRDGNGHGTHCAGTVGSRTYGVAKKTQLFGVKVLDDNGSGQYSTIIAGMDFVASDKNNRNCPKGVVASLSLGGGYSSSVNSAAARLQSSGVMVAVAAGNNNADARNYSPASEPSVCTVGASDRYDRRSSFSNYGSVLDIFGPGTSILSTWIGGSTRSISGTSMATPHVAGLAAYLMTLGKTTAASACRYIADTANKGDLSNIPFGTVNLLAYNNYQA

[2] = type: physicochemical; settings: spiked into HuPrP-Tg mouse brain homogenate, RT 12 h, 10-60% sucrose step gradient, 200,000 x g, 1 h, 4°C, western blot 6E10; for Sucrose gradient fractions holding the majority of the peptide: 12 fractions from top
[3] = Negative-stain electron microscopy of synthetic Aβ with and without PK digestion; type: physicochemical; settings: for Fibrils seen by electron microscopy after PK digestion: PK-treated peptide preparations, negative stain EM; for Fibril formation and morphology by electron microscopy: peptide in PBS, without PK, negative stain 2% uranylacetate, 80 kV
Source text: To further rule out this possibility, PK-treated peptides were also examined by EM.
The excess buffered-protein solution was removed, and negatively stained with 2% uranylacetate. Grids were then washed by touching a buffer and the excess buffer blotted off immediately using a Whatman filter paper. Grids were then air-dried and kept at room temperature. Negatively stained specimens were observed by a JEOL 1200EX electron microscope (JEOL, Tokyo, Japan) with 80 kV of electron acceleration voltage.

proteinase K [4] = biological target: T1, proteinase K; experiment: Proteinase K digestion of synthetic Aβ spiked into non-AD brain homogenate; settings: spiked into non-AD brain homogenate with no detectable endogenous Aβ; P2 fraction; PK 0-50 μg/ml, 1 h, 37°C; western blot 6E10
[5] = pH 7.5

Substance | Immunoreactivity with 6E10 after PK digestion (PK sensitivity) (proteinase K [1]) | PK sensitivity of peptides dissolved in DMSO (proteinase K [1]) | Sucrose gradient fractions holding the majority of the peptide [2] | Large aggregates in bottom fractions 10-12 of the sucrose gradient [2] | Fibrils seen by electron microscopy after PK digestion [3] | Fibril formation and morphology by electron microscopy [3] | PK resistance of spiked peptide (PK concentration resisted) (proteinase K [4]) | Detergent solubility: fraction in which the peptide is detected (S2 supernatant = soluble, P2 pellet = insoluble) [5]
Aβ40: synthetic amyloid β peptide Aβ40 purchased from Sigma | No immunoreactivity | PK-sensitive | between fractions 1 and 3 | detected in significant amounts in fractions 10 to 12 | no fibrils or significant structures could be observed | relatively scarce but much longer | ≥ 50 µg/mL | only in the S2 but not in the P2
Aβ42: synthetic amyloid β peptide Aβ42 purchased from Sigma | No immunoreactivity | PK-sensitive | between fractions 1 and 3 | smaller amounts | no fibrils or significant structures could be observed | numerous but short fibrils | ≥ 50 µg/mL | 
